The target in the assay is rabbit skeletal muscle actin, filamentous (F-actin) (rabbit (Oryctolagus cuniculus), UniProt P68135 1-377). In words: co-sedimentation; 3 µM ABD with F-actin from 0 to 140 µM in F-buffer (10 mM Tris pH 7.5, 150 mM NaCl, 0.5 mM ATP, 2 mM MgCl2, 1 mM DTT), 30 min at 23–24 °C, pelleted at 100,000 x g; unbound ABD in the supernatant quantified on Coomassie gels; fit to Y=X/(Kd+X). The settings on record: both partners purified.

B1: WT β-III-spectrin ABD (amino acids 1–284), pE-SUMO construct (domain or fragment)
chain: MSSTLSPTDFDSLEIQGQYSDINNRWDLPDSDWDNDSSSARLFERSRIKALADEREAVQKKTFTKWVNSHLARVTCRVGDLYSDLRDGRNLLRLLEVLSGEILPKPTKGRMRIHCLENVDKALQFLKEQKVHLENMGSHDIVDGNHRLTLGLVWTIILRFQIQDISVETEDNKEKKSAKDALLLWCQMKTAGYPNVNVHNFTTSWRDGLAFNAIVHKHRPDLLDFESLKKCNAHYNLQNAFNLAEKELGLTKLLDPEDVNVDQPDEKSIITYVATYYHYFSKMK
notes: also called WT ABD; pE-SUMO-ABD WT; source: E. coli BL21(DE3)pLysS, purified (Ni-NTA, Ulp1 cleavage, second Ni-NTA, Sephadex S100 gel filtration)
A word on the Kd: it is a measure of binding affinity in units of concentration. A high value points to a looser complex. For B1, binding was characterised by a dissociation constant (Kd) of 75 µM.

Source of the values: publication PMC5676748, “Structural basis for high-affinity actin binding revealed by a β-III-spectrin SCA5 missense mutation” (Nature Communications, 2017).
